Experimental data from IntAct's records for PubMed 18250304.

B1: Endothelial transcription factor GATA-2 (Homo sapiens), P23769 (parent)
chain: MEVAPEQPRWMAHPAVLNAQHPDSHHPGLAHNYMEPAQLLPPDEVDVFFNHLDSQGNPYYANPAHARARVSYSPAHARLTGGQMCRPHLLHSPGLPWLDGGKAALSAAAAHHHNPWTVSPFSKTPLHPSAAGGPGGPLSVYPGAGGGSGGGSGSSVASLTPTAAHSGSHLFGFPPTPPKEVSPDPSTTGAASPASSSAGGSAARGEDKDGVKYQVSLTESMKMESGSPLRPGLATMGTQPATHHPIPTYPSYVPAAAHDYSSGLFHPGGFLGGPASSFTPKQRSKARSCSEGRECVNCGATATPLWRRDGTGHYLCNACGLYHKMNGQNRPLIKPKRRLSAARRAGTCCANCQTTTTTLWRRNANGDPVCNACGLYYKLHNVNRPLTMKKEGIQTRNRKMSNKSKKSKKGAECFEELSKCMQEKSSPFSAAALAGHMAPVGHLPPFSHSGHILPTPTPIHPSSSLSFGHPHPSSMVTAMG

Variants of: B1
Details: with cbp_human CREBBP

Row | Variant | effect of a mutation on the interaction
1 | L359V | increasing interaction
